From PMC11633826, “Site-specific π-clamp-mediated radiosynthesis of ^68Ga and ^18F PET radiopharmaceuticals” (Chemical Communications (Cambridge, England), 2024)
Bridge positions count the residues as written; N and C are the ends. Square brackets hold non-standard residues; d marks the D form. Peptide text beside a SMILES is read from it. * marks the point of attachment. X1 = O=C(O)CN1CCN(CC(=O)O)CCN(C(CCC(=O)NCCNC(=O)CCOCCOCCOCCOCCOCCC(=O)NCCSc2c(F)c(F)c(-c3c(F)c(F)c(*)c(F)c3F)c(F)c2F)C(=O)O)CC1

Experiments:
[1] = format: in vitro ADME, human
Protocol: (§1) Stability of [18F]AlF-4: [18F]AlF-4 (3-5 MBq) was incubated at 37 °C in RPMI media (500 µL). Aliquots of the
(§2) solutions were sampled at 1, 2, 3, 4 and 5 h and diluted in H 2O for C18 RP-HPLC analysis. The diluted solutions
(§3) were centrifuged at 13,000 g for 5 min prior to analysis.
(§4) Stability of [68Ga]Ga-5: A sample of [68Ga]Ga-5 was added to serum (with or without 5 mM reduced glutathione),
(§5) in a ratio of one part radiolabelled solution to four parts of serum by volume and incubated at 37 °C. Aliquots
(§6) were taken for SE-HPLC analysis at t = 1 h, 2 h, 3 h, 4 h and 5 h.
(§7) Cell culture: The rat cancer cell line AR42J (cultured in RPMI -1640) was purchased from American Type Culture
(§8) Collection. Growth media were supplemented with 10 % foetal bovine serum (FBS), 100 units/mL penicillin , 100
(§9) µg/mL streptomycin, and 2 mM ʟ-glutamine. Cell lines were harvested twice weekly using a formulation of 0.25
(§10) % trypsin/0.53 mM EDTA in Phosphate Buffered Salt (PBS) Solution without calcium and magnesium, which was
then neutralised with the appropriate medium containing FBS. Cells were maintaine d in a humidified chamber
containing 5 % CO2 at 37 °C.
SSTR2 in vitro binding studies: [68Ga]Ga-5 was prepared as per above. The radioconjugate was then diluted with […]
(§11) by PBS wash (500 μL x 1). The radioactivity associated with each fraction were then counted using a gamma […]

in vivo [2] = details: mouse
Protocol: as §1, §2, §3, §4, §5, §6, §7, §8, §9, §10
then neutralised with the appropriate medium containing FBS. […]
as §11
isotropic voxel size. Images were co-registered and analysed using VivoQuant v.3.0 (Invicro). […]
(ROIs) were delineated for PET activity quantification in specific organs. Uptake in each ROI was expressed as a […]

physchem = details: pH 7.4
in vivo [3] = details: BALB/c, mouse, iv, total radioactivity, Ex vivo biodistribution
Protocol: page 9: mice under 0.8-1.5% isoflurane in oxygen anaesthesia and warmed to 37 °C for the duration of the experiment. Mice were administered [68Ga]Ga-5 (∼2-3 μg, ∼0.8-1.5 MBq) in 200 μL of PBS via intravenous tail injection. Dynamic PET scans were acquired for up to 1 h post injection, followed by a CT scan for anatomical visualisation (480 projections; helical acquisition; 55 kVp; 600 ms exposure time). PET/CT datasets were reconstructed using a Monte Carlo-based full-3D iterative algorithm (TeraTomo, Mediso) with 4 iterations, 6 subsets, and 0.4 mm isotropic voxel size. Images were co-registered and analysed using VivoQuant v.3.0 (Invicro). Regions of interest (ROIs) were delineated for PET activity quantification in specific organs. Uptake in each ROI was expressed as a percentage of injected dose per gram of tissue (% ID/g). Biodistribution studies: Following PET/CT imaging study, mice (n=4/group, one mouse from each group was not subjected to PET/CT imaging) were culled by cervical dislocation, organs were dissected, weighed, and gamma- counted along with standards prepared from the corresponding sample of injected radiolabelled conjugates. Conjugate uptake was calculated as a percentage of injected dose per gram (% ID/g) of tissue.

For C[C@@H](O)[C@H](NC(=O)[C@@H]1CSSC[C@H](NC(=O)[C@@H](Cc2ccccc2)NC(=O)[C@H](Cc2ccccc2)NC(=O)[C@@H]2CCCN2C(=O)[C@H](CSc2c(F)c(F)c(-c3c(F)c(F)c(SCCNC(=O)CCOCCOCCOCCOCCOCCC(=O)NCCNC(=O)CCC(C(=O)O)N4CCN(CC(=O)O)CCN(CC(=O)O)CC4)c(F)c3F)c(F)c2F)NC(=O)[C@@H](N)Cc2ccccc2)C(=O)N[C@@H](Cc2ccc(O)cc2)C(=O)N[C@H](Cc2c[nH]c3ccccc23)C(=O)N[C@@H](CCCCN)C(=O)N[C@@H]([C@@H](C)O)C(=O)N1)C(=O)O (stereo partly shown) [[68Ga]Ga-5, [^68Ga]Ga-NODAGA-FCPF-TATE, metal not drawn] (H-FC(X1)PF[dF]CY[dW]KTCT-OH; disulfide 6-11), the “dissociation of the radiotracer in human serum” value [1] was 2%, the tissue uptake at 1 h (in vivo [2]; female, BALB/c, iv, total radioactivity, PET 68Ga radioactivity remaining in circulation) was 13.8 ± 1.61 %ID/g and the “route of clearance from the blood pool” value (in vivo [2]) was “predominantly hepatically”. It also gave a logD (physchem) of -0.4 ± 0.03, a tissue uptake at 1 h (in vivo [3]; Bone) of 0.95 %ID/g and a tissue uptake at 1 h (in vivo [3]; Brain) of 1.29 %ID/g. For the same compound, the tissue uptake at 1 h (in vivo [3]; Pituitary gland) was 6.04 %ID/g, the tissue uptake at 1 h (in vivo [3]; female, Adrenal glands) was 6.45 %ID/g and the tissue uptake at 1 h (in vivo [3]; female, Blood) was 27.2 %ID/g. It also gave a tissue uptake at 1 h (in vivo [3]; female, Heart) of 7.89 %ID/g, a tissue uptake at 1 h (in vivo [3]; female, Kidneys) of 9.57 %ID/g and a tissue uptake at 1 h (in vivo [3]; female, Liver) of 54.6 %ID/g. It also gave a tissue uptake at 1 h (in vivo [3]; female, Lower GI) of 2.76 %ID/g, a tissue uptake at 1 h (in vivo [3]; female, Lungs) of 10.6 %ID/g and a tissue uptake at 1 h (in vivo [3]; female, Muscle) of 0.69 %ID/g. The tissue uptake at 1 h (in vivo [3]; female, Pancreas) was 3.49 %ID/g, the tissue uptake at 1 h (in vivo [3]; female, Spleen) was 20.8 %ID/g and the tissue uptake at 1 h (in vivo [3]; female, Stomach) was 2.17 %ID/g. It also gave a tissue uptake at 1 h (in vivo [3]; female, Upper GI) of 5.64 %ID/g.
